Measured values from paper PMC8741639 (Structure (London, England : 1993), 2021).

Target: the molecule itself
Assay: cryo-EM structure

B1: AcrA, periplasmic membrane fusion protein of the AcrAB-TolC efflux pump (natural protein)
chain: CDDKQAQQGGQQMPAVGVVTVKTEPLQITTELPGRTSAYRIAEVRPQVSGIILKRNFKEGSDIEAGVSLYQIDPATYQATYDSAKGDLAKAQAAANIAQLTVNRYQKLLGTQYISKQEYDQALADAQQANAAVTAAKAAVETARINLAYTKVTSPISGRIGKSNVTEGALVQNGQATALATVQQLDPIYVDVTQSSNDFLRLKQELANGTLKQENGKAKVSLITSDGIKFPQDGTLEFSDVTVDQTTGSITLRAIFPNPDHTLLPGMFVRARLEEGLNPNAILVPQQGVTRTPRGDATVLVVGADDKVETRPIVASQAIGDKWLVTEGLKAGDRVVISGLQKVRPGVQVKAQEVTADNNQQAASGAQPEQSKS
stoichiometry N: 6
